In paper PMC6381284 one finds virus-free cell-cell fusion (luciferase): CHO-K1 cells with EBV gB and KSHV gH/gL overlaid with HEK293T cells overexpressing membrane EphA4, compared with cells overexpressing EphA2 (% more fusion than with EphA2) data, which are given here for one substance.

The assay addresses KSHV glycoprotein H/glycoprotein L (gH/gL) (Kaposi's sarcoma-associated herpesvirus (KSHV)) (UniProt F5HAK9).
UniProt F5HAK9, sequence (F5HAK9 whole entry, looked up): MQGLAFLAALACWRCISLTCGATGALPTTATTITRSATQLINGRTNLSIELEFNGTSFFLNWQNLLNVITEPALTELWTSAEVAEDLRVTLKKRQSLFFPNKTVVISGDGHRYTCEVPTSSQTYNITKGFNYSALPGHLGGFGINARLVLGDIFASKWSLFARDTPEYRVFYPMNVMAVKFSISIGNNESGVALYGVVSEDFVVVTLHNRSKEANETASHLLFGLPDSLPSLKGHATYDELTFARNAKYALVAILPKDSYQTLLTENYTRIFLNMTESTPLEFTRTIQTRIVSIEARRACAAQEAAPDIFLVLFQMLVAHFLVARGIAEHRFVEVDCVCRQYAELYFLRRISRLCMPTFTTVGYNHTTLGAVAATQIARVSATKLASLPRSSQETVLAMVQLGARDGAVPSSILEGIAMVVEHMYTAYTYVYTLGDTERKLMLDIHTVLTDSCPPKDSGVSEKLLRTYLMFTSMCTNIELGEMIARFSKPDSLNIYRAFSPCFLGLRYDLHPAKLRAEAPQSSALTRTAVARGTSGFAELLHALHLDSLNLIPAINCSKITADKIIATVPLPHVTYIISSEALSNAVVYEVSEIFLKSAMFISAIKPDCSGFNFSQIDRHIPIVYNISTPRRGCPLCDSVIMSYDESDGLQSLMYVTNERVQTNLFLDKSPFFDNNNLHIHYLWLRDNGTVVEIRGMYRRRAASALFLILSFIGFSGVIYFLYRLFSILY

With “Soluble EphA4-Fc (from UniProt P54764 20-547) (Fc fusion)”, the virus-free cell-cell fusion (luciferase): CHO-K1 cells with EBV gB and KSHV gH/gL overlaid with HEK293T cells overexpressing membrane EphA4, compared with cells overexpressing EphA2 (% more fusion than with EphA2) was determined as 33.
